According to patent US20240425609A1 (Regeneron, published 2024):

T1: mouse PD1 (mouse, UniProt Q02242 25-288)
T1 sequence (looked up): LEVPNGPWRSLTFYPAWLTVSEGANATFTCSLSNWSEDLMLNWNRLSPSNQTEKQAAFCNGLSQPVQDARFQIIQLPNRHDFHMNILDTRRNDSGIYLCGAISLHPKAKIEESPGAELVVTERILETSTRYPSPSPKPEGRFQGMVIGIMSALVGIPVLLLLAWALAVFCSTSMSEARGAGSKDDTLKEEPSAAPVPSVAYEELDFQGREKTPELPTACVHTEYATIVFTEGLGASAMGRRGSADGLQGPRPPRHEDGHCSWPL

T2: mouse CD20 (mouse, UniProt P19437 1-291)
T2 construct: whole, on cells; also called mCD20; murine CD20
T2 sequence (looked up): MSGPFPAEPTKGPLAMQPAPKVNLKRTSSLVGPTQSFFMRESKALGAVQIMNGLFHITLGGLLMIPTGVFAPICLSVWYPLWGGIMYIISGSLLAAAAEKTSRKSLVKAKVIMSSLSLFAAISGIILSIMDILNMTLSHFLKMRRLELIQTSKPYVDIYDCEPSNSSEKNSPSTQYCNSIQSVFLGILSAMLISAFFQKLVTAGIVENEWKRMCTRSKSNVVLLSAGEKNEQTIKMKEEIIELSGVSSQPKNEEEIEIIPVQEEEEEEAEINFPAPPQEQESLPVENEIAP

B1: 1 + 2 m20_mPL_1 (bispecific antibody, human IgG1, kappa)
heavy: QVQLQQPGAELVRPGTSVKLSCKASGYTFTSYWMHWIKQRPGQGLEWIGVIDPSDNYTKYNQKFKGKATLTVDTSSSTAYMQLSSLTSEDSAVYFCAREGYYGSSPWFAYWGQGTLVTVSSASTKGPSVFPLAPSSKSTSGGTAALGCLVKDYFPEPVTVSWNSGALTSGVHTFPAVLQSSGLYSLSSVVTVPSSSLGTQTYICNVNHKPSNTKVDKKVEPKSCDKTHTCPPCPAPEAEGAPSVFLFPPKPKDTLMISRTPEVTCVVVDVSHEDPEVKFNWYVDGVEVHNAKTKPREEQYNSTYRVVSVLTVLHQDWLNGKEYKCKVSNKALPSSIEKTISKAKGQPREPQVCTLPPSRDELTKNQVSLSCAVKGFYPSDIAVEWESNGQPENNYKTTPPVLDSDGSFFLVSKLTVDKSRWQQGNVFSCSVMHEALHNRFTQKSLSLSPGK
light: QIVMSQSPAILSASPGEKVTMTCRARSSVSYIHWYQQKPGSSPKPWIYATSNLASGVPGRFSGSGSGTSYSLTITRVEAEDAATYYCQQWSSKPPTFGGGTKLEIKRTVAAPSVFIFPPSDEQLKSGTASVVCLLNNFYPREAKVQWKVDNALQSGNSQESVTEQDSKDSTYSLSSTLTLSKADYEKHKVYACEVTHQGLSSPVTKSFNRGEC
chain: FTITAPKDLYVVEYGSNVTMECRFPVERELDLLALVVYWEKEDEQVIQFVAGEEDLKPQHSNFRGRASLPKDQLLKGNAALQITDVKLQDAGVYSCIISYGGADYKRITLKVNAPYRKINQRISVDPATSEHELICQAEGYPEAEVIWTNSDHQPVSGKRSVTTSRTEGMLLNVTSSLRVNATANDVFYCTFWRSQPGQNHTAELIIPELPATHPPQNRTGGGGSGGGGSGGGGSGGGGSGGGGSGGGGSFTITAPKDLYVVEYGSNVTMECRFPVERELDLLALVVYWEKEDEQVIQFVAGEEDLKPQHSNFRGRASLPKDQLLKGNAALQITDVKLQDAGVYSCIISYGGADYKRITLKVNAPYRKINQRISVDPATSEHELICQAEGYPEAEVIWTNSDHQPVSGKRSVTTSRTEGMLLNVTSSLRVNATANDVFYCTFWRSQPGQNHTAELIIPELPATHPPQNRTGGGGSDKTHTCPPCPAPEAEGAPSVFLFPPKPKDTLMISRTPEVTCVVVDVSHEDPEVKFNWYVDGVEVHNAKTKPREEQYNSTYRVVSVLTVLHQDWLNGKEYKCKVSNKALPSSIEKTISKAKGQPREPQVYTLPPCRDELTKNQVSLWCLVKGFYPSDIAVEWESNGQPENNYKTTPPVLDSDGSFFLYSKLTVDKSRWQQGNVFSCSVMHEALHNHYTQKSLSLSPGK
B2: 2 + 2 m20_mPL_3 (bispecific antibody, human IgG1, kappa)
heavy: QVQLQQPGAELVRPGTSVKLSCKASGYTFTSYWMHWIKQRPGQGLEWIGVIDPSDNYTKYNQKFKGKATLTVDTSSSTAYMQLSSLTSEDSAVYFCAREGYYGSSPWFAYWGQGTLVTVSSASTKGPSVFPLAPSSKSTSGGTAALGCLVKDYFPEPVTVSWNSGALTSGVHTFPAVLQSSGLYSLSSVVTVPSSSLGTQTYICNVNHKPSNTKVDKKVEPKSCDKTHTCPPCPAPEAEGAPSVFLFPPKPKDTLMISRTPEVTCVVVDVSHEDPEVKFNWYVDGVEVHNAKTKPREEQYNSTYRVVSVLTVLHQDWLNGKEYKCKVSNKALPSSIEKTISKAKGQPREPQVCTLPPSRDELTKNQVSLSCAVKGFYPSDIAVEWESNGQPENNYKTTPPVLDSDGSFFLVSKLTVDKSRWQQGNVFSCSVMHEALHNRFTQKSLSLSPGKGGGGSGGGGSGGGGSQVQLQQPGAELVRPGTSVKLSCKASGYTFTSYWMHWIKQRPGQGLEWIGVIDPSDNYTKYNQKFKGKATLTVDTSSSTAYMQLSSLTSEDSAVYFCAREGYYGSSPWFAYWGQGTLVTVSSASTKGPSVFPLAPSSKSTSGGTAALGCLVKDYFPEPVTVSWNSGALTSGVHTFPAVLQSSGLYSLSSVVTVPSSSLGTQTYICNVNHKPSNTKVDKKVEPKSCD
chain: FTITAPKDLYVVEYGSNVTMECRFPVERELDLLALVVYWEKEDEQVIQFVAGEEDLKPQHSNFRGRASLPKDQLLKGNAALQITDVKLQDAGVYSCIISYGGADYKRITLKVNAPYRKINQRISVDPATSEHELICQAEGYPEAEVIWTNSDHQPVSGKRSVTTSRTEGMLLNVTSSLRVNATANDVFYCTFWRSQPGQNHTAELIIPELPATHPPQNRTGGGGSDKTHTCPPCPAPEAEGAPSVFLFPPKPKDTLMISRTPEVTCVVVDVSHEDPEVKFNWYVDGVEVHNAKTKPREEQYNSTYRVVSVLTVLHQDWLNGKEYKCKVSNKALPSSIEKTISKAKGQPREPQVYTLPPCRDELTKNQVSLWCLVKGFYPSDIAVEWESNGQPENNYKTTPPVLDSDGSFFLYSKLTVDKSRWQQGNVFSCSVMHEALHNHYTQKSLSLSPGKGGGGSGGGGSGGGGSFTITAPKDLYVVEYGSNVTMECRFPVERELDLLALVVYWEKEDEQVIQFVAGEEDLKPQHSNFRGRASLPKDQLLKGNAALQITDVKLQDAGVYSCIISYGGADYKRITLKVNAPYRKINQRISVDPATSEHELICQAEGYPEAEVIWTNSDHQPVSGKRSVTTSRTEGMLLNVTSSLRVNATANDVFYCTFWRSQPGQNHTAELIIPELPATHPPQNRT
light: B1 light

Experiments:
mouse PD1 [1] = molecular target: T1, mouse PD1; assay: cell-based or functional assay
mouse CD20 = molecular target: T2, mouse CD20; assay: flow cytometry on MC38/mCD20 cells
Procedure: (§1) Cells (HEK 293, MC38 over-expressing mCD20 or Jurkat over-expressing mPD1) were resuspended in FACS wash (PBS with 1% FBS) at 1×10⁸ cells/mL. The staining was performed in 1×10⁵ cells per well. The antibodies were diluted with a ratio of 1:5 from a starting concentration of 1.3×10⁻⁷ M. The diluted antibodies were then added into the wells containing cells. Cells were stained for 30 min at 2-8° C. and washed twice with FACS wash buffer. APC-conjugated goat anti-human IgG (Jackson Immuno Research, 109-607-003, 1:400) was added to stain the cells for 30 min at 2-8° C. Following washing, cells were fixed in 2% paraformaldehyde for 30 min at 2-8° C. After two washes, stained cells were analyzed using BD LSRFortessa™ FACS instrument. The results were analyzed by FlowJo. FSC/SSC gates were used to select mononuclear cells.

mouse PD1 [2] = molecular target: T1, mouse PD1; assay: flow cytometry on Jurkat/mPD1 cells
Procedure: as §1

| Binder | Max % inhibition, AP1-luciferase bioassay, 2.5 nM CD3 bsAb (mouse PD1 [1]) | Max MFI (mouse CD20) | EC50 (mouse PD1 [2]) | Max MFI (mouse PD1 [2]) | IC50 (M), AP1-luciferase bioassay, 2.5 nM CD3 bsAb (mouse PD1 [1]) | EC50 (mouse CD20) |
| --- | --- | --- | --- | --- | --- | --- |
| B1 | 11% | 20300 MFI | 22.4 nM | 16700 MFI |  |  |
| B2 | 33% | 35300 MFI | 6.31 nM | 6980 MFI | 6.5e-11 M | 8.42 nM |
